Data set [1] deals with T1, TFBb (Halobacterium sp. NRC-1, UniProt Q9HRE6 1-325).
T1 sequence: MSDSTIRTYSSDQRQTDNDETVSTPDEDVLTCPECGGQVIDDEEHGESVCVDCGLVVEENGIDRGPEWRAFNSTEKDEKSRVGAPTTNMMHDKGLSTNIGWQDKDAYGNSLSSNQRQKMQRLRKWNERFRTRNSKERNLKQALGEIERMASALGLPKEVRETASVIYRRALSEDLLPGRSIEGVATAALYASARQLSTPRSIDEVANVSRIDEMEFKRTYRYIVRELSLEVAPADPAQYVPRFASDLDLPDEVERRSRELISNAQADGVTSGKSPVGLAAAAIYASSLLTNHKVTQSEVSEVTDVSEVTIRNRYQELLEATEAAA
The data set can be described thus: EMSA. A general note: In EMSA bound probe runs differently from free probe, usually more slowly.

For data set [2], the target named is T2, TFBg (Halobacterium sp. NRC-1, UniProt Q9HSF7 1-323).
T2 sequence: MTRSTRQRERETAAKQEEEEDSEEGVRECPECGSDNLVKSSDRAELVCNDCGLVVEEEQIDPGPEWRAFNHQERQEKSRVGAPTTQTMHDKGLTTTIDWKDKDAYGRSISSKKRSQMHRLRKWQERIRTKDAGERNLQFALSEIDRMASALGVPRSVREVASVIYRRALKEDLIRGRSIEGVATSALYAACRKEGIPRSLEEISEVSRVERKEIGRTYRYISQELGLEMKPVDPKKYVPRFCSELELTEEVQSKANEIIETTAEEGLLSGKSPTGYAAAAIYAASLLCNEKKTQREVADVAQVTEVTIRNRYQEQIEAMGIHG
The experiment in a line: EMSA.

B1: FM (BRE/TATA of Phsp5 replaced by Pbop) (dsDNA)
DNA 1: GCGGGATCCTCGTAGAGTTACACGAAATGCGGACATAGTTTTGGCTGGAGTCAAGGCATATGAGT
DNA 2: ACTCATATGCCTTGACTCCAGCCAAAACTATGTCCGCATTTCGTGTAACTCTACGAGGATCCCGC
In the case of B1, the binding result in data set [1] and in data set [2] was “no binding” in each case.

For the origin of these results see PMC2396416.
